Reference: patent publication US20220040304A1, “A COMPOSITION FOR CANCER CELL DEATH AND ITS USE” (Industry-University Cooperation Foundation Hanyang …, priority 2018, published 2022)
“Also recorded” adds a separate entry of the source.

Legend:
Format in all cases: cell-based, human
MCF-7 cells [1] = assay: MTT colorimetric change and cell viability after light irradiation; settings: MCF-7, protein 10 μM 24 hours, light 10 mW/cm^2, no Co-h
Procedure: MCF-7 cells were seeded at 5×10^5 cells/mL in a 96-well plate (SPL Cell Culture Plate, 96 well (SPL, Cat #30096)), and cultured at 37° C. for 24 hours (overnight). After the overnight culture, the cells were washed with FBS & Phenol red-free media (RPMI, Well Gene., Korea, Cat #LM011-02), and 100 μL of an FBS-free medium containing the purified protein (final concentration: 10 μM) was added, followed by reaction at 37° C. for 24 hours. After the reaction for 24 hours, the cells were washed with FBS & Phenol red-free media (RPMI), and then 100 μL of FBS & Phenol red-free media (RPMI) was added again. After light irradiation at 10 mW/cm^2 over time, the cells were washed with FBS & Phenol red-free media (RPMI), and 100 μL of FBS & Phenol red-free media (RPMI) was added again. 10 μL of 3-(4,5-dimethylthiazol-2-yl)-2,5-diphenyltetrazolium bromide (MTT; Cell Biolabs Inc., USA; final concentration: 1×) was added, followed by reaction at 37° C. for 4 hours. 100 μL of a supernatant was removed, and 100 μL of DMSO (Sigma-Aldrich., USA) was added, followed by reaction for 10 minutes. The colorimetric change of MTT according to a protein type treated to the cells and light irradiation time was confirmed, and then cell viability was confirmed by measuring the absorbance intensity at 570 nm using a plate reader.

MCF-7 cells [2] = assay: MTT colorimetric change and cell viability after reaction with Co-h substrate; settings: MCF-7, protein 10 μM 24 hours, Co-h 150 μM, without light irradiation
Procedure: MCF-7 cells were seeded at 5×10^5 cells/mL in a 96-well plate (SPL Cell Culture Plate, 96 well (SPL, Cat #30096)), and cultured at 37° C. for 24 hours (overnight).
(§1) After the culture for 24 hours, the cells were washed with FBS & Phenol red-free media (RPMI), and 100 μL of an FBS-free medium containing the purified protein (final concentration: 10 μM) was added, followed by reaction at 37° C. for 24 hours.
After the reaction for 24 hours, the cells were washed with FBS & Phenol red-free media (RPMI), and then 100 μL of FBS & Phenol red-free media (RPMI) containing a Co-h substrate solution (final concentration: 150 μM) was added. The cells were washed with FBS & Phenol red-free media (RPMI), and 100 μL of fresh FBS & Phenol red-free media (RPMI) were then added.
10 μL of 3-(4,5-dimethylthiazol-2-yl)-2,5-diphenyltetrazolium bromide (MTT) (final concentration: 1×) was added, followed by reaction at 37° C. for 4 hours. After 100 μL of a supernatant was removed, 100 μL of DMSO was added, followed by reaction for 10 minutes. The colorimetric change of MTT according to a protein type treated to the cells and the light irradiation time was checked, and then cell viability was confirmed by measuring the absorbance intensity at 570 nm using a plate reader.
MTT is an assay for measuring cell proliferation or live cells through the presence of blue-violet insoluble […] in the mitochondria of the live cells, where it has been reduced from a yellow soluble substrate, MTT tetrazolium, by the action of a dehydrogenase.

MCF-7 cells [3] = assay: Cell death by SYTOX Green or EthD-1 and DAPI fluorescence (light irradiation or Co-h); settings: MCF-7, protein 10 μM 24 hours; light 10 mW/cm^2 or Co-h 150 μM over time
Procedure: as §1, with “MCF-7 cells were seeded at 5×10^5 cells/mL in a 96-well plate (SPL Cell Culture Plate, 96 well (SPL, Cat #30096)), and cultured at 37° C. for 24 hours (overnight). After” for “After”
After the reaction for 24 hours, the cells were washed with FBS & Phenol red-free media (RPMI), and then 100 μL of FBS & Phenol red-free media (RPMI) was then added.
After the reaction, 8.1 μL of FMN (final concentration: 150 μM) was added. After reaction for 18 hours or 24 hours, the cells were washed with FBS & Phenol red-free media (RPMI), and 100 μL of FBS & Phenol red-free media (RPMI) containing FMN (final concentration: 150 μM) was added, followed by reaction at 37° C. for 1 hour.
After the irradiation with light at 10 mW/cm^2 over time, 50 μL of SYTOX Green (Thermo Scientific Inc., USA; final concentration: 261 nM) staining DNA of dead cells was added and reacted at 37° C. for 30 minutes, and 10 μL of DAPI (Vecta Labs., Australia) staining DNA of live cells was added and reacted for 5 minutes.
SYTOX Green or EthD-1 and DAPI fluorescence images were observed using a confocal microscope according to a protein type treated to cells and i) light irradiation time or ii) reaction time with a Co-h substrate, and cell death was confirmed by measuring relative fluorescence intensity at an excitation wavelength of 504 nm and an emission wavelength of 523 nm of SYTOX Green, and an excitation wavelength of 525 nm and an emission wavelength of 590 nm of EthD-1 using a plate reader.
Whether or not Cell death was observed by fluorescence microscopy using SYTOX Green (dead cell-specific dye, green) or EthD-1 (dead cell-specific dye, red) and DAPI (live cell-specific dye, blue).

MDA-MB-435 = assay: Cell death with Co-h substrate by cell type (SYTOX Green or EthD-1/DAPI); settings: MDA-MB-435, protein 10 μM, Co-h 150 μM for 5 minutes
Procedure: The cells were seeded at 5×10^5 cells/mL in 96-well plates (SPL Cell Culture Plate, 96 well (SPL, Cat #30096)), and cultured at 37° C. for 24 hours (overnight). After the culture for 24 hours, the cells were washed with FBS & phenol red-free media, and 100 μL of FBS & phenol red-free media containing a purified protein (final concentration: 10 μM) was added, followed by reaction at 37° C. for 24 hours.
Subsequently, the cells were washed with FBS & phenol red-free media, and 100 μL of FBS & phenol red-free media was added. 100 μL of FBS & Phenol red-free media (RPMI) containing a Co-h substrate solution (final concentration: 150 μM) was added, followed by reaction at 37° C. for 5 minutes.
After the reaction, 50 μL of SYTOX Green (final concentration: 261 nM) or 90 μL of ethidium homodimer (EthD-1) (final concentration 1×), which stains DNA of dead cells, was added, followed by reaction at 37° C. for 30 minutes. 10 μL of DAPI staining DNA of live cells was added, followed by reaction for 5 minutes. Cell death was confirmed by observing KillerRed, SYTOX Green, MiniSOG, EthD-1 and DAPI fluorescence using a confocal microscope.

Row | Molecule | cell viability / colorimetric change of MTT with light irradiation time (MCF-7 cells [1]) | cell viability / colorimetric change of MTT with reaction time with Co-h (MCF-7 cells [2]) | cell death by staining (SYTOX Green or EthD-1 dead cells, DAPI live cells) (MCF-7 cells [3]) | cell death with Co-h substrate (MDA-MB-435)
1 | KR: first protein KillerRed, ROS-generating protein (superoxide), expressed from pRSET-KillerRed, 31 kDa (protein, pRSET-KillerRed, first protein KillerRed, ROS-generating protein (superoxide), expressed from pRSET-KillerRed, 31 kDa) MRGSHHHHHHGMASMTGGQQMGRDLYDDDDKDPMLCCMRRTKQVEKNDEDQKISEGGPALFQSDMTFKIFIDGEVNGQKFTIVADGSSKFPHGDFNVHAVCETGKLPMSWKPICHLIQYGEPFFARYPDGISHFAQECFPEGLSIDRTVRFENDGTMTSHHTYELDDTCVVSRITVNCDGFQPDGPIMRDQLVDILPNETHMFPHGPNAVRQLAFIGFTTADGGLMMGHFDSKMTFNGSRAIEIPGPHFVTIITKQMRDTSDKRDHVCQREVAYAHSVPRITSAIGSDED | alive | the staining becomes pink | stained with DAPI | –
2 | RLuc8.6-KR: fusion protein of RLuc8.6 and KillerRed without lead peptide, 69 kDa (protein, pRSET-RLuc8.6-KillerRed) MRGSHHHHHHGMASMTGGQQMGRDLYDDDDKDPMASKVYDPEQRKRMITGPQWWARCKQMNVLDSFINYYDSEKHAENAVIFLHGNATSSYLWRHVVPHIEPVARCIIPDLIGMGKSGKSGNGSYRLLDHYKYLTAWFELLNLPKKIIFVGHDWGSALAFHYAYEHQDRIKAIVHMESVVDVIESWMGWPDIEEELALIKSEEGEKMVLENNFFVETLLPSKIMRKLEPEEFAAYLEPFKEKGEVRRPTLSWPREIPLVKGGKPDVVQIVRNYNAYLRASDDLPKLFIESDPGFFYNAIVEGAKKFPNTEFVKVKGLHFLQEDAPDEMGKYIKSFVERVLKNEQEFGGGMLCCMRRTKQVEKNDEDQKISEGGPALFQSDMTFKIFIDGEVNGQKFTIVADGSSKFPHGDFNVHAVCETGKLPMSWKPICHLIQYGEPFFARYPDGISHFAQECFPEGLSIDRTVRFENDGTMTSHHTYELDDTCVVSRITVNCDGFQPDGPIMRDQLVDILPNETHMFPHGPNAVRQLAFIGFTTADGGLMMGHFDSKMTFNGSRAIEIPGPHFVTIITKQMRDTSDKRDHVCQREVAYAHSVPRITSAIGSDED | alive | the staining becomes pink | stained with DAPI | none of the six breast cancer cell lines were killed
3 | RLuc8.6-KR-LP: fusion protein of RLuc8.6, KillerRed and lead peptide WLEAAYQRFL, 71 kDa (protein, pRSET-RLuc8.6-KillerRed-Lead peptide) MRGSHHHHHHGMASMTGGQQMGRDLYDDDDKDPMASKVYDPEQRKRMITGPQWWARCKQMNVLDSFINYYDSEKHAENAVIFLHGNATSSYLWRHVVPHIEPVARCIIPDLIGMGKSGKSGNGSYRLLDHYKYLTAWFELLNLPKKIIFVGHDWGSALAFHYAYEHQDRIKAIVHMESVVDVIESWMGWPDIEEELALIKSEEGEKMVLENNFFVETLLPSKIMRKLEPEEFAAYLEPFKEKGEVRRPTLSWPREIPLVKGGKPDVVQIVRNYNAYLRASDDLPKLFIESDPGFFYNAIVEGAKKFPNTEFVKVKGLHFLQEDAPDEMGKYIKSFVERVLKNEQEFGGGMLCCMRRTKQVEKNDEDQKISEGGPALFQSDMTFKIFIDGEVNGQKFTIVADGSSKFPHGDFNVHAVCETGKLPMSWKPICHLIQYGEPFFARYPDGISHFAQECFPEGLSIDRTVRFENDGTMTSHHTYELDDTCVVSRITVNCDGFQPDGPIMRDQLVDILPNETHMFPHGPNAVRQLAFIGFTTADGGLMMGHFDSKMTFNGSRAIEIPGPHFVTIITKQMRDTSDKRDHVCQREVAYAHSVPRITSAIGSDEDGGGWLEAAYQRFL | killed; also recorded: cell viability decreased | die and cell viability is reduced | stained with SYTOX Green or EthD-1; also recorded: the number of dead cells increases | killed them
